According to patent publication US20240417459A1 (published 2024):

Target: human ILT4-HIS
Assay: BLI (Octet)

Binder | Kd
9H9-7A3 LH (bispecific antibody) heavy: not shown light: DIQMTQSPSTLSASVGDRVTITCRASQSISGWLAWYQQKPGKAPKLLIYKASSLESGVPSRFSGSGSGTEFTLTISSLQPDDFATYYCQQYYGSSRTFGQGTNVEIKRTVAAPSVFIFPPSDEQLKSGTASVVCLLNNFYPREAKVQWKVDNALQSGNSQESVTEQDSKDSTYSLSSTLTLSKADYEKHKVYACEVTHQGLSSPVTKSFNRGEC | 0.282 nM
9H9-7B1 HL (bispecific antibody) heavy: not shown light: DIQMTQSPSTLSASVGDRVTITCRASQSISGWLAWYQQKPGKAPKLLIYKASSLESGVPSRFSGSGSGTEFTLTISSLQPDDFATYYCQQYYGSSRTFGQGTNVEIKRTVAAPSVFIFPPSDEQLKSGTASVVCLLNNFYPREAKVQWKVDNALQSGNSQESVTEQDSKDSTYSLSSTLTLSKADYEKHKVYACEVTHQGLSSPVTKSFNRGEC | 0.139 nM

Continued by falling Kd, values first:

Kd | Binder
0.308 nM | 9H9-7A3 HL (bispecific antibody) heavy: not shown light: DIQMTQSPSTLSASVGDRVTITCRASQSISGWLAWYQQKPGKAPKLLIYKASSLESGVPSRFSGSGSGTEFTLTISSLQPDDFATYYCQQYYGSSRTFGQGTNVEIKRTVAAPSVFIFPPSDEQLKSGTASVVCLLNNFYPREAKVQWKVDNALQSGNSQESVTEQDSKDSTYSLSSTLTLSKADYEKHKVYACEVTHQGLSSPVTKSFNRGEC
0.056 nM | 9H9-7B1 LH (bispecific antibody) heavy: not shown light: DIQMTQSPSTLSASVGDRVTITCRASQSISGWLAWYQQKPGKAPKLLIYKASSLESGVPSRFSGSGSGTEFTLTISSLQPDDFATYYCQQYYGSSRTFGQGTNVEIKRTVAAPSVFIFPPSDEQLKSGTASVVCLLNNFYPREAKVQWKVDNALQSGNSQESVTEQDSKDSTYSLSSTLTLSKADYEKHKVYACEVTHQGLSSPVTKSFNRGEC
